{"source": "paper PMC11840924", "about": "“Identifying Allosteric Hotspots in Mycobacterium tuberculosis cAMP Receptor Protein through Structural Homology” (Biochemistry, 2025)", "key": {"[1]": {"target": "T1, CRPMTB A61I (Mycobacterium tuberculosis, UniProt P9WMH3 1-224, A61I)", "T1 sequence": "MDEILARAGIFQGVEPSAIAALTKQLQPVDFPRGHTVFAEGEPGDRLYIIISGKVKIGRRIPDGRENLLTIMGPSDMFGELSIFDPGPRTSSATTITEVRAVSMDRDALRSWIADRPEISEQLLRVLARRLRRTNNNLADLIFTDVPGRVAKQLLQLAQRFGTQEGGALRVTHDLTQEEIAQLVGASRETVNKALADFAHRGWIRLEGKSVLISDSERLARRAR", "assay": "fluorescence anisotropy; 1 mM cAMP; 75 mM KCl, 50 mM HEPES, 1 mM EDTA, pH 7.6; […]; temperature not stated", "conditions": "protein: recombinant; tags: His-tag (pET-3a); chain copies: 2; label: fluorescein; blunt"}, "[2]": {"target": "T2, CRPMTB D63H (Mycobacterium tuberculosis, UniProt P9WMH3 1-224, D63H)", "T2 sequence": "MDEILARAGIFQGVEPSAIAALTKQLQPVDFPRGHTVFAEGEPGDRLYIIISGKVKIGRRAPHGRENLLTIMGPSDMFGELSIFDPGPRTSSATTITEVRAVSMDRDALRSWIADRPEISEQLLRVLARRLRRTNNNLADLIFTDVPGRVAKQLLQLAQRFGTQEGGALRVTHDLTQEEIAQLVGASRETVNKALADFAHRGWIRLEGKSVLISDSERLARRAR", "assay": "fluorescence anisotropy; 1 mM cAMP; 75 mM KCl, 50 mM HEPES, 1 mM EDTA, pH 7.6; […]; temperature not stated", "conditions": "protein: recombinant; tags: His-tag (pET-3a); chain copies: 2; label: fluorescein; blunt"}, "[3]": {"target": "T3, CRPMTB A61H (Mycobacterium tuberculosis, UniProt P9WMH3 1-224, A61H)", "T3 sequence": "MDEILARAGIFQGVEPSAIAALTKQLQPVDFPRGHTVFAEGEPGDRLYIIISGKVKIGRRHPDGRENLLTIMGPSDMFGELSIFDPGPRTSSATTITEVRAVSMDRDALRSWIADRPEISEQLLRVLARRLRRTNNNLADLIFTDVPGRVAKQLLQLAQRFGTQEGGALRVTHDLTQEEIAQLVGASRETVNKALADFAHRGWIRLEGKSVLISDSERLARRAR", "assay": "fluorescence anisotropy; 1 mM cAMP; 75 mM KCl, 50 mM HEPES, 1 mM EDTA, pH 7.6; […]; temperature not stated", "conditions": "protein: recombinant; tags: His-tag (pET-3a); chain copies: 2; label: fluorescein; blunt"}, "[4]": {"target": "T4, CRPMTB T70F (Mycobacterium tuberculosis, UniProt P9WMH3 1-224, T70F)", "T4 sequence": "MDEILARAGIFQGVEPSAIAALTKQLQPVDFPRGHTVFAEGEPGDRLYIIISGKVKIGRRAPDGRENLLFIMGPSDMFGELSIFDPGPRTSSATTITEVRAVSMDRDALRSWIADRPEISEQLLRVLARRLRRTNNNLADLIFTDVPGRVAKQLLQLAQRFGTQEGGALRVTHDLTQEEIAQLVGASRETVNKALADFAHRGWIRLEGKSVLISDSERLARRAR", "assay": "fluorescence anisotropy; 1 mM cAMP; 75 mM KCl, 50 mM HEPES, 1 mM EDTA, pH 7.6; […]; temperature not stated", "conditions": "protein: recombinant; tags: His-tag (pET-3a); chain copies: 2; label: fluorescein; blunt"}, "[5]": {"target": "T1, CRPMTB A61I", "assay": "fluorescence anisotropy; no cAMP; 75 mM KCl, 50 mM HEPES, 1 mM EDTA, pH 7.6; […]; temperature not stated", "conditions": "protein: recombinant; tags: His-tag (pET-3a); chain copies: 2; label: fluorescein; blunt"}, "[6]": {"target": "T2, CRPMTB D63H", "assay": "fluorescence anisotropy; no cAMP; 75 mM KCl, 50 mM HEPES, 1 mM EDTA, pH 7.6; […]; temperature not stated", "conditions": "protein: recombinant; tags: His-tag (pET-3a); chain copies: 2; label: fluorescein; blunt"}, "[7]": {"target": "T3, CRPMTB A61H", "assay": "fluorescence anisotropy; no cAMP; 75 mM KCl, 50 mM HEPES, 1 mM EDTA, pH 7.6; […]; temperature not stated", "conditions": "protein: recombinant; tags: His-tag (pET-3a); chain copies: 2; label: fluorescein; blunt"}, "[8]": {"target": "T4, CRPMTB T70F", "assay": "fluorescence anisotropy; no cAMP; 75 mM KCl, 50 mM HEPES, 1 mM EDTA, pH 7.6; […]; temperature not stated", "conditions": "protein: recombinant; tags: His-tag (pET-3a); chain copies: 2; label: fluorescein; blunt"}, "[9]": {"target": "T5, cAMP receptor protein from Mycobacterium tuberculosis (CRPMTB), wildtype (Mycobacterium tuberculosis), P9WMH3", "T5 chain": "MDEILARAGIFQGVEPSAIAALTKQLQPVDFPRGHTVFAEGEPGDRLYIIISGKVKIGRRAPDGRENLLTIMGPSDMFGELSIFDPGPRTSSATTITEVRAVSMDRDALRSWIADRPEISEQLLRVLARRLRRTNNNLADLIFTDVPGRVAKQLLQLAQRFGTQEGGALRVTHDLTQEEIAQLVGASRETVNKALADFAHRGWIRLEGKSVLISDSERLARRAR", "assay": "fluorescence polarisation; fluorescence anisotropy; CRPMTB titrated into 3 nM fluorescein-labelled 32-bp serC promoter DNA (full site); 75 mM KCl, 50 mM HEPES, 1 mM EDTA, pH 7.6; 1 mM cAMP; second transition read as high-order oligomers on DNA; apparent", "conditions": "remark: other sources report otherwise"}, "[10]": {"target": "T5, cAMP receptor protein from …", "assay": "fluorescence polarisation; fluorescence anisotropy, stoichiometric titration; CRPMTB titrated into 200 nM fluorescein-labelled 32-bp serC promoter DNA; 75 mM KCl, 50 mM HEPES, 1 mM EDTA, pH 7.6; 0 mM cAMP", "conditions": "remark: other sources report otherwise"}, "[11]": {"target": "T5, cAMP receptor protein from …", "assay": "fluorescence polarisation; fluorescence anisotropy; CRPMTB titrated into 3 nM fluorescein-labelled 32-bp serC promoter DNA (full site); 75 mM KCl, 50 mM HEPES, 1 mM EDTA, pH 7.6; 0 mM cAMP; second transition ([CRP] > 100 nM) read as free CRPMTB joining the specific CRPMTB-DNA complex (high-order oligomers on DNA); apparent", "conditions": "remark: other sources report otherwise"}, "[12]": {"target": "T5, cAMP receptor protein from …", "assay": "SEC", "conditions": "remark: other sources report otherwise"}, "[13]": {"target": "the molecule itself", "assay": "SEC"}}, "data": [{"binder": "serC32 full-site promoter (dsDNA) DNA 1: GCGCGTAGTGTGAACAAGCTCACATGCAAGCC DNA 2: GGCTTGCATGTGAGCTTGTTCACACTACGCGC", "values": [{"measurement": "Ka", "setting": "[1]", "result": "3.57 ± 0.03 10^8 M-1"}, {"measurement": "Ka", "setting": "[2]", "result": "4.66 ± 0.06 10^8 M-1"}, {"measurement": "Ka", "setting": "[3]", "result": "2.95 ± 0.05 10^8 M-1"}, {"measurement": "Ka", "setting": "[4]", "result": "2.75 ± 0.02 10^8 M-1"}, {"measurement": "Ka", "setting": "[5]", "result": "2.71 ± 0.02 10^8 M-1"}, {"measurement": "Ka", "setting": "[6]", "result": "4.53 ± 0.04 10^8 M-1"}, {"measurement": "Ka", "setting": "[7]", "result": "4.03 ± 0.08 10^8 M-1"}, {"measurement": "Ka", "setting": "[8]", "result": "4.42 ± 0.04 10^8 M-1"}]}, {"binder": "cAMP receptor protein from Mycobacterium tuberculosis (CRPMTB), wildtype, P9WMH3 (natural protein) MDEILARAGIFQGVEPSAIAALTKQLQPVDFPRGHTVFAEGEPGDRLYIIISGKVKIGRRAPDGRENLLTIMGPSDMFGELSIFDPGPRTSSATTITEVRAVSMDRDALRSWIADRPEISEQLLRVLARRLRRTNNNLADLIFTDVPGRVAKQLLQLAQRFGTQEGGALRVTHDLTQEEIAQLVGASRETVNKALADFAHRGWIRLEGKSVLISDSERLARRAR", "values": [{"measurement": "apparent K (1/[CRP]) at the boundary of oligomer formation on DNA", "setting": "[9]", "result": "6e+06", "unit": "M⁻¹"}, {"measurement": "stoichiometry N", "setting": "[10]", "result": "> 4"}, {"measurement": "apparent K (1/[CRP]) at the boundary of oligomer formation on DNA", "setting": "[11]", "result": "1.5e+07", "unit": "M⁻¹"}, {"measurement": "stoichiometry N", "setting": "[12]", "result": 2}]}, {"binder": "CRPMTB A61I (natural protein) MDEILARAGIFQGVEPSAIAALTKQLQPVDFPRGHTVFAEGEPGDRLYIIISGKVKIGRRIPDGRENLLTIMGPSDMFGELSIFDPGPRTSSATTITEVRAVSMDRDALRSWIADRPEISEQLLRVLARRLRRTNNNLADLIFTDVPGRVAKQLLQLAQRFGTQEGGALRVTHDLTQEEIAQLVGASRETVNKALADFAHRGWIRLEGKSVLISDSERLARRAR", "values": [{"measurement": "stoichiometry N", "setting": "[13]", "result": 2}]}, {"binder": "CRPMTB T70F (natural protein) MDEILARAGIFQGVEPSAIAALTKQLQPVDFPRGHTVFAEGEPGDRLYIIISGKVKIGRRAPDGRENLLFIMGPSDMFGELSIFDPGPRTSSATTITEVRAVSMDRDALRSWIADRPEISEQLLRVLARRLRRTNNNLADLIFTDVPGRVAKQLLQLAQRFGTQEGGALRVTHDLTQEEIAQLVGASRETVNKALADFAHRGWIRLEGKSVLISDSERLARRAR", "values": [{"measurement": "stoichiometry N", "setting": "[13]", "result": 2}]}, {"binder": "CRPMTB D63H (natural protein) MDEILARAGIFQGVEPSAIAALTKQLQPVDFPRGHTVFAEGEPGDRLYIIISGKVKIGRRAPHGRENLLTIMGPSDMFGELSIFDPGPRTSSATTITEVRAVSMDRDALRSWIADRPEISEQLLRVLARRLRRTNNNLADLIFTDVPGRVAKQLLQLAQRFGTQEGGALRVTHDLTQEEIAQLVGASRETVNKALADFAHRGWIRLEGKSVLISDSERLARRAR", "values": [{"measurement": "stoichiometry N", "setting": "[13]", "result": 2}]}, {"binder": "CRPMTB A61H (natural protein) MDEILARAGIFQGVEPSAIAALTKQLQPVDFPRGHTVFAEGEPGDRLYIIISGKVKIGRRHPDGRENLLTIMGPSDMFGELSIFDPGPRTSSATTITEVRAVSMDRDALRSWIADRPEISEQLLRVLARRLRRTNNNLADLIFTDVPGRVAKQLLQLAQRFGTQEGGALRVTHDLTQEEIAQLVGASRETVNKALADFAHRGWIRLEGKSVLISDSERLARRAR", "values": [{"measurement": "stoichiometry N", "setting": "[13]", "result": 2}]}]}
